Target: VEGF receptor on endothelial cells
Assay: inhibition of radiolabeled VEGF binding to its receptor on endothelial cells; peptide concentration varied

Chain of VEGF receptor on endothelial cells (chain, as listed by the source): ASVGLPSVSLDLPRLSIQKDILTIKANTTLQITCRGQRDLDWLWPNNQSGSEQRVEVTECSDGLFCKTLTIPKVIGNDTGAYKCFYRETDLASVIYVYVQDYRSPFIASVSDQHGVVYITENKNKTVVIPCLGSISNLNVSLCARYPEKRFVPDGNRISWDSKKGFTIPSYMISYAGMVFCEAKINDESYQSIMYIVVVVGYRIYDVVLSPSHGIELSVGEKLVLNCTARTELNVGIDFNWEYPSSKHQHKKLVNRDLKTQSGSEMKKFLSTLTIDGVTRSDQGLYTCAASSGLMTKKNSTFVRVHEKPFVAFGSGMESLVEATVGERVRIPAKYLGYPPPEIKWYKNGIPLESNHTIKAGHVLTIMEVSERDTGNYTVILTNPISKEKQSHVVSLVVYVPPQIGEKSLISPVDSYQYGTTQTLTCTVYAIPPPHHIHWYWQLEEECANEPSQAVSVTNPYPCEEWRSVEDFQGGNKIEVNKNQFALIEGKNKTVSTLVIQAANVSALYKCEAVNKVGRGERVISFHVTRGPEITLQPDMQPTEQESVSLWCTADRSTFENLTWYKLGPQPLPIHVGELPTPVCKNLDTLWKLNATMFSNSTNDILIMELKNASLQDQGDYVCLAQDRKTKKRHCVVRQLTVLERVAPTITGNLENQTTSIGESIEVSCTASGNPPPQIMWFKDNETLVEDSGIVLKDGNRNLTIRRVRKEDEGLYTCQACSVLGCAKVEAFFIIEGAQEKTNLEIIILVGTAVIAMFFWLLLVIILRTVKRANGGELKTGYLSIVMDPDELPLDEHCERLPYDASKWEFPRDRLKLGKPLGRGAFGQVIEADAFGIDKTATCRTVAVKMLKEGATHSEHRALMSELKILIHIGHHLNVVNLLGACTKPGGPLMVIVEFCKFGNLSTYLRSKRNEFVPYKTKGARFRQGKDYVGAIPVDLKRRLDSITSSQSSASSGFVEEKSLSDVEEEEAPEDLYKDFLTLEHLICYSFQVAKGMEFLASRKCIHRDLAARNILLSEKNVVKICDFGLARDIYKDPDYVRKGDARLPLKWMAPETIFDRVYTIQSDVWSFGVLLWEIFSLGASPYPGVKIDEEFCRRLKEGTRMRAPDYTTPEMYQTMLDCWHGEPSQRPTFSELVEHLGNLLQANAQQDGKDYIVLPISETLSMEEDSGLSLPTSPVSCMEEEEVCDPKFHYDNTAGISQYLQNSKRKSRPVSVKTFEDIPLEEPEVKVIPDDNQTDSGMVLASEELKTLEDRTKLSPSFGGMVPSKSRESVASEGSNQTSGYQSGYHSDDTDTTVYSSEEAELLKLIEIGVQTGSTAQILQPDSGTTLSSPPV

| IC50 | Binder |
| --- | --- |
| 430 nM | YDGRGDSVVYGLKKKAARGRRAARGRR [ST100,032] |
| 1100 nM | PYAGRGDSVVYGLGGGPGAARGRRAARGRR [ST100,033] |
